Experimental data taken from the Immune Epitope Database (IEDB).

What was measured:
Assay in all cases: IEDB peptide-MHC binding, purified MHC/competitive/fluorescence; filed as Kd, often an IC50 or EC50 that approximates it; ≥ and ≤ were set here for values at or beyond the usual limits of such assays
Settings in all cases: source organism: Bacillus cereus G9241
[1] = biological target: HLA-A*02:03
[2] = biological target: HLA-A*23:01
[3] = biological target: HLA-A*02:12
[4] = biological target: HLA-A*69:01
[5] = biological target: HLA-A*68:02
[6] = biological target: HLA-B*57:01
[7] = biological target: HLA-B*46:01
[8] = biological target: HLA-B*39:01
[9] = biological target: HLA-A*03:01
[10] = biological target: HLA-A*02:11
[11] = biological target: HLA-A*02:19
[12] = biological target: HLA-A*24:03
[13] = biological target: HLA-A*02:16
[14] = biological target: HLA-B*15:01
[15] = biological target: HLA-A*02:01
[16] = biological target: HLA-B*27:03
[17] = biological target: HLA-B*15:17
[18] = biological target: HLA-A*26:01
[19] = biological target: HLA-B*51:01
[20] = biological target: HLA-A*29:02
[21] = biological target: HLA-B*18:01

DEEAINLFH
Kd [1]: ≥ 20 µM
Kd [2]: ≥ 20 µM
Kd [3]: ≥ 20 µM
Kd [4]: ≥ 20 µM
Kd [5]: ≥ 20 µM
Kd [6]: ≥ 20 µM
Kd [7]: ≥ 20 µM
Kd [8]: ≥ 20 µM
Kd [9]: ≥ 20 µM
Kd [10]: ≥ 20 µM
Kd [11]: ≥ 20 µM
Kd [12]: ≥ 20 µM
Kd [13]: ≥ 20 µM
Kd [14]: ≥ 20 µM
Kd [15]: ≥ 20 µM
Kd [16]: ≥ 20 µM
Kd [17]: ≥ 20 µM
Kd [18]: ≥ 20 µM
Kd [19]: ≥ 20 µM
Kd [20]: ≥ 20 µM
Kd [21]: 0.692 µM
